Blank lines part the entries; values can stand above or below the substance they belong to.
Tests used:
GST-Lck-SH2 [1] = molecular target: GST-Lck-SH2 (UniProt P06239); assay: fluorescence change on Src-catalysed phosphorylation in presence of GST-Lck-SH2 (1.25 µM peptide, 5 µM Lck-SH2, 12 nM Src, 1 mM ATP)
GST-Lck-SH2 [2] = molecular target: GST-Lck-SH2 (UniProt P06239); assay: fluorescence change on Src-catalysed phosphorylation in presence of GST-Lck-SH2; value in parentheses, amide-capped peptide 13
GST-Lck-SH2 [3] = molecular target: GST-Lck-SH2 (UniProt P06239); assay: fluorescence change on Src-catalysed phosphorylation in presence of GST-Lck-SH2 (1.25 µM peptide, 5 µM Lck-SH2, 12 nM Src, 1 mM ATP); library peptide with -NH(CH2)2SH
[4] = system: T1, CC[C@H](C)[C@H](NC(=O)[C@H](CCC(=O)O)NC(=O)[C@H](CNc1ccc([N+](=O)[O-])c2nonc12)NC(=O)[C@H](Cc1ccc(O)cc1)NC(=O)[C@@H](NC(=O)[C@H](CCC(=O)O)NC(=O)[C@H](CCC(=O)O)NC(=O)[C@H](CCC(=O)O)NC(C)=O)[C@@H](C)CC)C(=O)N[C@@H](CCC(=O)O)C(=O)N[C@@H](C)C(N)=O; assay: purified protein, by the assay type; format: biochemical; settings: other: Src kinase; Lck-SH2 20 μM; varying peptide; pH 7.5; 30.0 °C
T1 construct: purchased Invitrogen
Description: The fluorescence change was monitored as a function of time. Control assays in the absence of Lck-SH2 were also performed.
The final Src concentration was 30 nM for peptide 13 and 15 nM for peptide 14.

[5] = molecular target: phosphorylated peptide 14, Ac-Glu-Glu-Glu-Ile-pTyr-Gly-Glu-Ile-Dab(dapoxyl)-Ala-amide; assay: Src phosphorylation of 8 µM peptide 14 at 2 µM Lck-SH2, fluorescence
[6] = molecular target: phosphorylated peptide 14, Ac-Glu-Glu-Glu-Ile-pTyr-Gly-Glu-Ile-Dab(dapoxyl)-Ala-amide; assay: Src phosphorylation of 8 µM peptide 14 at 4 µM Lck-SH2, fluorescence
[7] = molecular target: phosphorylated peptide 14, Ac-Glu-Glu-Glu-Ile-pTyr-Gly-Glu-Ile-Dab(dapoxyl)-Ala-amide; assay: Src phosphorylation of 8 µM peptide 14 at 8 µM Lck-SH2, fluorescence
[8] = molecular target: phosphotyrosine version of peptide 13, Ac-Glu-Glu-Glu-Ile-pTyr-Dap(NBD)-Glu-Ile-Glu-Ala-amide; assay: Src phosphorylation of 16 µM peptide 13 at 4 µM Lck-SH2, fluorescence
[9] = molecular target: phosphotyrosine version of peptide 13, Ac-Glu-Glu-Glu-Ile-pTyr-Dap(NBD)-Glu-Ile-Glu-Ala-amide; assay: Src phosphorylation of 16 µM peptide 13 at 8 µM Lck-SH2, fluorescence
[10] = molecular target: phosphorylated peptide 14, Ac-Glu-Glu-Glu-Ile-pTyr-Gly-Glu-Ile-Dab(dapoxyl)-Ala-amide; assay: Src phosphorylation of 8 µM peptide 14 at 12 µM Lck-SH2, fluorescence
[11] = molecular target: phosphorylated peptide 14, Ac-Glu-Glu-Glu-Ile-pTyr-Gly-Glu-Ile-Dab(dapoxyl)-Ala-amide; assay: Src phosphorylation of 8 µM peptide 14 at 16 µM Lck-SH2, fluorescence
[12] = molecular target: phosphorylated peptide 14, Ac-Glu-Glu-Glu-Ile-pTyr-Gly-Glu-Ile-Dab(dapoxyl)-Ala-amide; assay: Src phosphorylation of 8 µM peptide 14 at 20 µM Lck-SH2, fluorescence
[13] = molecular target: phosphorylated peptide 14, Ac-Glu-Glu-Glu-Ile-pTyr-Gly-Glu-Ile-Dab(dapoxyl)-Ala-amide; assay: Src phosphorylation of 8 µM peptide 14 at 26 µM Lck-SH2, fluorescence
[14] = molecular target: phosphorylated peptide 14, Ac-Glu-Glu-Glu-Ile-pTyr-Gly-Glu-Ile-Dab(dapoxyl)-Ala-amide; assay: Src phosphorylation of 8 µM peptide 14 at 32 µM Lck-SH2, fluorescence
[15] = molecular target: phosphotyrosine version of peptide 13, Ac-Glu-Glu-Glu-Ile-pTyr-Dap(NBD)-Glu-Ile-Glu-Ala-amide; assay: Src phosphorylation of 16 µM peptide 13 at 12 µM Lck-SH2, fluorescence
[16] = molecular target: phosphotyrosine version of peptide 13, Ac-Glu-Glu-Glu-Ile-pTyr-Dap(NBD)-Glu-Ile-Glu-Ala-amide; assay: Src phosphorylation of 16 µM peptide 13 at 16 µM Lck-SH2, fluorescence
[17] = molecular target: phosphotyrosine version of peptide 13, Ac-Glu-Glu-Glu-Ile-pTyr-Dap(NBD)-Glu-Ile-Glu-Ala-amide; assay: Src phosphorylation of 16 µM peptide 13 at 20 µM Lck-SH2, fluorescence
[18] = molecular target: phosphotyrosine version of peptide 13, Ac-Glu-Glu-Glu-Ile-pTyr-Dap(NBD)-Glu-Ile-Glu-Ala-amide; assay: Src phosphorylation of 16 µM peptide 13 at 26 µM Lck-SH2, fluorescence
[19] = molecular target: phosphotyrosine version of peptide 13, Ac-Glu-Glu-Glu-Ile-pTyr-Dap(NBD)-Glu-Ile-Glu-Ala-amide; assay: Src phosphorylation of 16 µM peptide 13 at 32 µM Lck-SH2, fluorescence
[20] = molecular target: phosphorylated peptide 14, Ac-Glu-Glu-Glu-Ile-pTyr-Gly-Glu-Ile-Dab(dapoxyl)-Ala-amide; assay: Src phosphorylation of 8 µM peptide 14 at 0.2 µM Lck-SH2, fluorescence
[21] = molecular target: phosphotyrosine version of peptide 13, Ac-Glu-Glu-Glu-Ile-pTyr-Dap(NBD)-Glu-Ile-Glu-Ala-amide; assay: Src phosphorylation of 16 µM peptide 13 at 0 µM Lck-SH2 (baseline point of the titration)
[22] = molecular target: phosphotyrosine version of peptide 13, Ac-Glu-Glu-Glu-Ile-pTyr-Dap(NBD)-Glu-Ile-Glu-Ala-amide; assay: fluorescence titration: Src-phosphorylated peptide 13 fixed at 16 µM, GST-Lck-SH2 varied, nonlinear regression
GST-Lck-SH2 [23] = molecular target: GST-Lck-SH2 (UniProt P06239); assay: fluorescence change on Src-catalysed phosphorylation in presence of GST-Lck-SH2; value in parentheses, amide-capped peptide 14

GST-Lck-SH2, sequence (P06239 127-224): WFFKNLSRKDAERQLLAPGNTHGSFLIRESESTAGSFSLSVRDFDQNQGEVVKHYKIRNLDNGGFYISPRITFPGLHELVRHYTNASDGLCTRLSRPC

Substance: Src (Homo sapiens)
Km [4]: 32 ± 0.5 µM
Vmax [4]: 1.4 ± 0.1 µmol/min/mg

Substance: Src-phosphorylated library peptide with Dab-7 (Cascade Yellow on Dab) at P+1 of Ac-Glu-Glu-Glu-Ile-Tyr-Gly-Glu-Ile-Glu-Ala
Fold change in fluorescence intensity (GST-Lck-SH2 [1]): 1.5 fold

Substance: Src-phosphorylated library peptide with Dab-7 (Cascade Yellow on Dab) at P+3 of Ac-Glu-Glu-Glu-Ile-Tyr-Gly-Glu-Ile-Glu-Ala
Fold change in fluorescence intensity (GST-Lck-SH2 [1]): 2.1 fold

Substance: Src-phosphorylated library peptide with Dab-5 (dapoxyl on Dab) at P+2 of Ac-Glu-Glu-Glu-Ile-Tyr-Gly-Glu-Ile-Glu-Ala
Fold change in fluorescence intensity (GST-Lck-SH2 [1]): 1.6 fold

Substance: Src-phosphorylated library peptide with Dap-5 (dapoxyl on Dap) at P+4 of Ac-Glu-Glu-Glu-Ile-Tyr-Gly-Glu-Ile-Glu-Ala
Fold change in fluorescence intensity (GST-Lck-SH2 [1]): 2.3 fold

Substance: Src-phosphorylated library peptide with Dab-6 (NBD on Dab) at P+4 of Ac-Glu-Glu-Glu-Ile-Tyr-Gly-Glu-Ile-Glu-Ala
Fold change in fluorescence intensity (GST-Lck-SH2 [1]): 1.7 fold

Substance: Src-phosphorylated library peptide with Dab-6 (NBD on Dab) at P+2 of Ac-Glu-Glu-Glu-Ile-Tyr-Gly-Glu-Ile-Glu-Ala
Fold change in fluorescence intensity (GST-Lck-SH2 [1]): 1.4 fold

Substance: Src-phosphorylated library peptide with Dab-7 (Cascade Yellow on Dab) at P+4 of Ac-Glu-Glu-Glu-Ile-Tyr-Gly-Glu-Ile-Glu-Ala
Fold change in fluorescence intensity (GST-Lck-SH2 [1]): 1.6 fold

Substance: Src-phosphorylated library peptide with Dab-5 (dapoxyl on Dab) at P+1 of Ac-Glu-Glu-Glu-Ile-Tyr-Gly-Glu-Ile-Glu-Ala
Fold change in fluorescence intensity (GST-Lck-SH2 [1]): 2.4 fold

Substance: Src-phosphorylated library peptide with Dap-5 (dapoxyl on Dap) at P+2 of Ac-Glu-Glu-Glu-Ile-Tyr-Gly-Glu-Ile-Glu-Ala
Fold change in fluorescence intensity (GST-Lck-SH2 [1]): 2.4 fold

Substance: Src-phosphorylated library peptide with Dap-7 (Cascade Yellow on Dap) at P+1 of Ac-Glu-Glu-Glu-Ile-Tyr-Gly-Glu-Ile-Glu-Ala
Fold change in fluorescence intensity (GST-Lck-SH2 [1]): 1.4 fold

Other lines, results leading:

Fold change in fluorescence intensity (GST-Lck-SH2 [1]): 1.4 fold
Substance: Src-phosphorylated library peptide with Dap-7 (Cascade Yellow on Dap) at P+4 of Ac-Glu-Glu-Glu-Ile-Tyr-Gly-Glu-Ile-Glu-Ala

Fold change in fluorescence intensity (GST-Lck-SH2 [2]): 1.6 fold
Substance: phosphotyrosine version of peptide 13, Ac-Glu-Glu-Glu-Ile-pTyr-Dap(NBD)-Glu-Ile-Glu-Ala-amide

Fold change in fluorescence intensity (GST-Lck-SH2 [1]): 1.7 fold
Substance: Src-phosphorylated library peptide with Dab-7 (Cascade Yellow on Dab) at P+2 of Ac-Glu-Glu-Glu-Ile-Tyr-Gly-Glu-Ile-Glu-Ala

Fold change in fluorescence intensity (GST-Lck-SH2 [1]): 1.6 fold
Substance: Src-phosphorylated library peptide with Dap-7 (Cascade Yellow on Dap) at P+3 of Ac-Glu-Glu-Glu-Ile-Tyr-Gly-Glu-Ile-Glu-Ala

Fold change in fluorescence intensity (GST-Lck-SH2 [1]): 1.3 fold
Substance: Src-phosphorylated library peptide with Dap-6 (NBD on Dap) at P+3 of Ac-Glu-Glu-Glu-Ile-Tyr-Gly-Glu-Ile-Glu-Ala

Fold change in fluorescence intensity (GST-Lck-SH2 [1]): 3.6 fold
Substance: Src-phosphorylated library peptide with Dab-5 (dapoxyl on Dab) at P+3 of Ac-Glu-Glu-Glu-Ile-Tyr-Gly-Glu-Ile-Glu-Ala

Fold change in fluorescence intensity (GST-Lck-SH2 [3]): 4.1 fold
Substance: Src-phosphorylated library peptide with Dab-5 (dapoxyl on Dab) at P+4 of Ac-Glu-Glu-Glu-Ile-Tyr-Gly-Glu-Ile-Glu-Ala

Fold change in fluorescence intensity (GST-Lck-SH2 [3]): 1.6 fold
Substance: Src-phosphorylated library peptide with Dap-6 (NBD on Dap) at P+1 of Ac-Glu-Glu-Glu-Ile-Tyr-Gly-Glu-Ile-Glu-Ala

Fold change in fluorescence intensity (GST-Lck-SH2 [1]): 1.9 fold
Substance: Src-phosphorylated library peptide with Dab-6 (NBD on Dab) at P+3 of Ac-Glu-Glu-Glu-Ile-Tyr-Gly-Glu-Ile-Glu-Ala

Fold change in fluorescence intensity (GST-Lck-SH2 [1]): 3.3 fold
Substance: Src-phosphorylated library peptide with Dap-5 (dapoxyl on Dap) at P+3 of Ac-Glu-Glu-Glu-Ile-Tyr-Gly-Glu-Ile-Glu-Ala

Fluorescence Increase (fold change) [5]: 1.7 fold
Fluorescence Increase (fold change) [6]: 2.32 fold
Fluorescence Increase (fold change) [7]: 4.31 fold
Fluorescence Increase (fold change) [8]: 1.24 fold
Fluorescence Increase (fold change) [9]: 1.33 fold
Fluorescence Increase (fold change) [10]: 5.34 fold
Fluorescence Increase (fold change) [11]: 6.2 fold
Fluorescence Increase (fold change) [12]: 6.85 fold
Fluorescence Increase (fold change) [13]: 7.32 fold
Fluorescence Increase (fold change) [14]: 7.2 fold
Fluorescence Increase (fold change) [15]: 1.41 fold
Fluorescence Increase (fold change) [16]: 1.52 fold
Fluorescence Increase (fold change) [17]: 1.56 fold
Fluorescence Increase (fold change) [18]: 1.61 fold
Fluorescence Increase (fold change) [19]: 1.59 fold
Fluorescence Increase (fold change) [20]: 1.07 fold
Fluorescence Increase (fold change) [21]: 1.07 fold
Kd [22]: 2.1 µM
Substance: GST-Lck-SH2 (from UniProt P06239 127-224)

Fold change in fluorescence intensity (GST-Lck-SH2 [1]): 1.8 fold
Substance: Src-phosphorylated library peptide with Dap-7 (Cascade Yellow on Dap) at P+2 of Ac-Glu-Glu-Glu-Ile-Tyr-Gly-Glu-Ile-Glu-Ala

Fold change in fluorescence intensity (GST-Lck-SH2 [1]): 1.3 fold
Substance: Src-phosphorylated library peptide with Dap-6 (NBD on Dap) at P+4 of Ac-Glu-Glu-Glu-Ile-Tyr-Gly-Glu-Ile-Glu-Ala

Fold change in fluorescence intensity (GST-Lck-SH2 [23]): 7.2 fold
Substance: phosphorylated peptide 14, Ac-Glu-Glu-Glu-Ile-pTyr-Gly-Glu-Ile-Dab(dapoxyl)-Ala-amide

Fold change in fluorescence intensity (GST-Lck-SH2 [1]): 1.3 fold
Substance: Src-phosphorylated library peptide with Dab-6 (NBD on Dab) at P+1 of Ac-Glu-Glu-Glu-Ile-Tyr-Gly-Glu-Ile-Glu-Ala
